Results on 1 molecule are retold here after article PMC10865538 (BMC Infectious Diseases, 2024).

In general, Kd refers to the constant that tells how readily two partners part at equilibrium.

The assay concerns the target T1, recombinant wild-type RBD-Fc (Sino Biological, 40,592-V02H) (SARS-CoV-2, UniProt P0DTC2).
T1 construct: also called Fc-tagged SARS-CoV-2 RBD; source: bought: Sino Biological
As to the kind of experiment: BLI. The conditions noted are these: both partners purified.

B1: sdAb39 (VHH)
VHH: EVQLVESGGGLVQPGGSLRLSCAASGNTSTRHPMSWVRQAPGKGLELVASIGRGEITYYADSVKGRFTISRDNSKNTLYLQMNSLRAEDTAVYYCAAFVDFLSRHNSRRPYPHGYWGQGTLVTVSS
On to B1, for which the Kd came out at 56 nM.
